The source of these data is US6960429B2, “Inhibition of viral gene activities” (priority 1997, dated 2005).

A word on the Ki: it is a measure of affinity in units of concentration, obtained from inhibition or displacement.

Experiment [1] addresses T1, NΔ360 (derivative of EBNA1) (Epstein-Barr virus, UniProt P03211).
T1 construct: NΔ360 and NΔ389 have a methionine followed by amino acids 361 and 390 to the carboxy-terminus, respectively; added initiator methionine (N); made in house; host or cells: E. coli
The format is biochemical. An excerpt:
Two DNAs used as probes in this study were generated by endonuclease digestion of cloned DNAs. That with two EBNA1-binding sites is the 131 bp, SalI to PstI fragment derived from p880 (30); and that with five GAL4-binding sites is the 109 bp, HinDIII to XbaI fragment derived from G5BCAT (31). DNA fragments were purified from agarose gels. […] This method distinguishes less than two-fold differences in DNA concentrations. These DNAs were labeled with the Klenow fragment of DNA Polymerase 1 in the presence of dATP, dGTP, dTTP, and ^32P α-dCTP (Amersham), and precipitated three times to remove unincorporated label (32).
The derivatives of EBNA1 (bEBNA1, NΔ360, NΔ389) and the GAL4 derivatives (GAL4(1-94), GAL4(1-94)&54-89, GAL4(1-94)&331-361, GAL4(1-94)&372-391) used in this study were all produced and purified as previously described (28). Briefly, bEBNA1 lacks amino acids 2 through 7 and all but fifteen amino acids of the gly-gly-ala repeats and was expressed in SF21 cells (23). NΔ360 and NΔ389 lack the first 360 and 389 amino acids, respectively, and were expressed in E. coli. GAL4(1-94) contains amino acids 1 to 94 of the yeast transactivator GAL4 plus eight carboxy-terminal amino acids coded by the poly-cloning region. The fusions designated GAL4(1-94)&#—# contain the indicated residues from EBNA1 cloned in frame into the poly-cloning region. All derivatives and fragments of EBNA1 were derived from the B95-8 viral strain (33, 15).
A.A. 40-89 and A.A. 331-391 were generated by amplifying the fragment of EBNA1 encoding those amino acids with PCR primers containing SalI and XbaI sites at the 5′ ends. […] The sequence of both clones was verified using an ABI Prism automated sequencer (Applied BioSystems). Expression of the fusion proteins in BL21 bacteria containing a DE3 lysogen and carrying pLysS was done as previously described (28). […]
Gel shift assays were done as previously described (28). […] The percentage of DNA linked is determined by dividing the amount of linked DNA by the total amount of DNA in the lane. […]

The target of experiment [2] is bEBNA1 (derivative of EBNA1). The format is biochemical, Epstein-Barr virus. On the procedure: Two DNAs used as probes in this study were generated by endonuclease digestion of cloned DNAs. That with two EBNA1-binding sites is the 131 bp, SalI to PstI fragment derived from p880 (30); and that with five GAL4-binding sites is the 109 bp, HinDIII to XbaI fragment derived from G5BCAT (31). DNA fragments were purified from agarose gels. They were quantified by making serial dilutions in the presence of ethidium bromide (0.5 μg/mL) and comparing their intensities, when exposed to ultraviolet light, to that of similar dilutions of a standard DNA. This method distinguishes less than two-fold differences in DNA concentrations. These DNAs were labeled with the Klenow fragment of DNA Polymerase 1 in the presence of dATP, dGTP, dTTP, and ^32P α-dCTP (Amersham), and precipitated three times to remove unincorporated label (32).
The derivatives of EBNA1 (bEBNA1, NΔ360, NΔ389) and the GAL4 derivatives (GAL4(1-94), GAL4(1-94)&54-89, GAL4(1-94)&331-361, GAL4(1-94)&372-391) used in this study were all produced and purified as previously described (28). Briefly, bEBNA1 lacks amino acids 2 through 7 and all but fifteen amino acids of the gly-gly-ala repeats and was expressed in SF21 cells (23). […]
Gel shift assays were done as previously described (28). […] The percentage of DNA linked is determined by dividing the amount of linked DNA by the total amount of DNA in the lane.

T1 sequence (P03211 361-641, stated change not applied): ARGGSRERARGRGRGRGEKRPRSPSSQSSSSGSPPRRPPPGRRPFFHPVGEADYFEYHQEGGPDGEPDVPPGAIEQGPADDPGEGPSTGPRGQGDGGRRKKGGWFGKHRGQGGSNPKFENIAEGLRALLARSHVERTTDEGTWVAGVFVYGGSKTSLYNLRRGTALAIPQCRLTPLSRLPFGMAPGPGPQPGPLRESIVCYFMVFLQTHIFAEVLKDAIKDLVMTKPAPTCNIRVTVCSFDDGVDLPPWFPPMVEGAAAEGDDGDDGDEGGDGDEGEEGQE

B1: Rnase A: control protein (protein, UniProt P61823 27-150, looked up)
Ribonuclease pancreatic: KETAAAKFERQHMDSSTSAASSSNYCNQMMKSRNLTKDRCKPVNTFVHESLADVQAVCSQKNVACKNGQTNCYQSYSTMSITDCRETGSSKYPNCAYKTTQANKHIIVACEGNPYVPVHFDASV
For the molecule B1, the Ki is 30 µM in experiment [1] (6.5 nM dimers of NΔ360, 20 fmols DNA with two EBNA1-binding sites, Ki = concentration of competitor which inhibits linking to 50%, read-out: Ki against NΔ360) and more than 42 µM in experiment [2] (6.5 nM dimers of bEBNA1, 20 fmols DNA with two EBNA1-binding sites, Ki = concentration of competitor which inhibits linking to 50%, read-out: Ki against bEBNA1). For the same molecule, the IC50 in experiment [1] (DNAs with two EBNA1-binding sites, read-out: Concentration inhibiting linking by NΔ360 to 50%) was determined as 30 µM. Also, the “Amount required to reduce linking by 50% relative to A.A. 331-391” value in experiment [1] (linking by NΔ360) is reported as “Approximately 1000 fold”. Also, in experiment [2] (DNAs with two binding sites, range of concentrations tested), the “Sensitivity of bEBNA1-mediated linking to competitor” value is reported as “insensitive”.
